This is an account of results in the nanobody polyreactivity screen of Harvey et al. (2022).

The nature of the data set: yeast display, Sf9 membrane polyspecificity reagent, FACS + sequencing; frameworks hold sequencing errors. Summed up: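 Nanobodies from a synthetic yeast display library (Saccharomyces cerevisiae BJ5465), induced 36–48 hours with galactose, were stained 1 hour at 4 °C with 10% biotinylated, detergent-solubilized Sf9 membrane reagent, enriched on streptavidin microbeads, then FACS-sorted. Anti-HA (expression) and streptavidin (reagent binding) fluorescence set low and high (top ~1%) gates. Polyreactivity labels come from the gate of origin. Genes were colony-PCR amplified, MiSeq 2 × 250 sequenced and filtered by CDR length.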
For “QVQLVESGRGLVQAGGSLRISCAASGSIFRVNAMGWYRQAPGKERELVASISKTGTRTYYADSVKGRFTISRDNAKITVYLQMNSLKPEDTAVYYCAADKPRREYDYWGQGTQVTVSS”, the “polyreactivity (PSR sort gate)” value is listed as “low polyreactivity”.
As to “QVQLVESGRGLVQAGGSLRLSCAASARTFPIYAMGCYRQAPWKEREFVAAITYSGGSTYYADSVKGRFTISRDNAKNTVYLQMNSLKPEDTAVYYCAVDGTKPYWHQRYDYSGQGTQVTVSS”, the “polyreactivity (PSR sort gate)” value is recorded as “low polyreactivity”.
With “QVQLVESGRGLVQAGGSLRLSCAASGFIFDYNTMGWYRQAPGKERELVAGITSGGSTYYADSVKGRFTISRDNEKNTFYLQMNSLKPDDTAVYYCATDDDEYYGYDYWGQGTQVTVST” the entry was “low polyreactivity”; with “QVQLVESGRGLVQAGGSLRLSCAASGFIFHRYAMGWYRQAPGKERELFAAITRTGGRTYYADSVKGRFTISRDNAKNTVYLQMNSLKPEDTEVYYCAAVRTLSYEYWGQGTKVTVSS”, “high polyreactivity”.
With “QVQLVESGRGLVQAGGSLRLSCAASGFTFDGNAMGWYRQAPGIERELFARITWDDGSTYYADSVKGRFTISRDNAKNTVYLQMNSLNPEDTAVYYCAAEWCTDGYQVLPVDYDYWGQGTQVTVSS” the entry was “low polyreactivity”.
“QVQLVESGRGLVQAGGSLRLSCAASGFTFRTYAMGWYRQSPGKERELDAAITRNGGTYYADSVKGRFTISRDNAKITVYLPMNSLKPEDTARYYCATDPAYWGDLPPEDDYWGQGTQVTVSS”: the “polyreactivity (PSR sort gate)” value is reported as “low polyreactivity”.
The same measure for “QVQLVESGRGLVQAGGSLRLSCAASGGTFYIYAMGWYRQAPGKERELVAVISISDASTYYADSVKGRFTFSRDNAKNTVYLQMNSLKPEDTAVYYCNAKSNPAGSYPSEHSGYDSWGQGTQVTVSS”: “low polyreactivity”.
Take “QVQLVESGRGLVQAGGSLRLSCAASGIIFSSYAMGWYRQAPGKERELVAAISYSGGSTYYADSVKGLFSISRDNAKNTVYLEMNCLIPEDTAVYYCAAQGYSPGGYDYWGQGTQVTVSW”: the “polyreactivity (PSR sort gate)” value was “low polyreactivity”.
For “QVQLVESGRGLVQAGGSLRLSCAASGIIFVKYAMGWYRQAPGKERELVAAISTRGGSTYYADSVKGRFTISRDNAKNTVYLQMNSLNPEDTAVYYCADDATRKSQLPNTVPYDYWGQGTQVTVSS”, the “polyreactivity (PSR sort gate)” value is “high polyreactivity”.
With “QVQLVESGRGLVQAGGSLRLSCAASGIIFVSYMGWYRQAPGKERELVAAIRWSGGRTYYADSVKGRFTISRDNAKNTVYLQMNSLNPVDTAVYYCAADALRKPKIALYDYWGQGTQVTVSS” the entry was “high polyreactivity”.
The same measure for “QVQLVESGRGLVQAGGSLRLSCAASGITFSYYTMGWYRQAPGKERELVAAINWNGGSTYYADSVKGRFTISRDNAKNTVYLQMNSLKPEDTAVYYCAREKWPSQYDYWGQGTQVTVSS”: “low polyreactivity”; for “QVQLVESGRGLVQAGGSLRLSCAASGRIFHYNAMVWYRQAPRKERELVAAISGSGGSTYYADTVKGRFTISRDIAKNTVYLQMNSLKPEDTADYYCGDKRRTLGGYWGQGTQVTVSS”: “high polyreactivity”; for “QVQLVESGRGLVQAGGSLRLSCAASGRIFRYYTMGWYRQAPGKERELVATISWNGSNTYYADSVKGRFTISRDNAKNTVYLQMNSLKPEDTAVYYCAAGVLPGLYNGARLFDYWGQGTQVTVSS”: “low polyreactivity”.
As for “QVQLVESGRGLVQAGGSLRLSCAASGRIFTKNTMGWYRQAPGKERELVAAIRSRAGSTYYADSVKGRFTISRDNAKNTVYLQMNSLKPEDTAVYYCAVPWFRSVDFDYWGQGTQVTVSS”, the “polyreactivity (PSR sort gate)” value is “low polyreactivity”.
As to “QVQLVESGRGLVQAGGSLRLSCAASGRIFYRYVMGWYRQAPGKERELVAAITSSGGSTYYADSVKGRFTISRDNAKNTVYFQMNSLKPEDTAVYYCSADRYTRYRYNYWGQGTQVTVSS”, the “polyreactivity (PSR sort gate)” value is given as “high polyreactivity”.
Regarding “QVQLVESGRGLVQAGGSLRLSCAASGRIFYVYAMGWSRTAPGKERELVAAITQSGGRTYYADSVKGRFTISRDNAKNTVYLQMNSLKPEDTAVYYCAATWLGSRNLVHITLYYWGQGTQVTVSS”, the “polyreactivity (PSR sort gate)” value was “low polyreactivity”.
In the case of “QVQLVESGRGLVQAGGSLRLSCAASGRIFYYAMGWYRQAPGKERELVAAITRSGGRTYYADSVKGRFTISRDNEKNTVYLQMNSLKPEDTAVYDCAADYGAQLWGYYPTFDYWGQGTQVTVSS”, the “polyreactivity (PSR sort gate)” value is given as “high polyreactivity”.
The same measure for “QVQLVESGRGLVQAGGSLRLSCAASGRIIGYYTMGWYRQAPGKERELVAAITRDGGSTYYADSVKGRFTISRDNAKNTVYLQMNSLKPEDTAVYYCTAASQSRYFYWGQGTQVTVSS”: “high polyreactivity”.
With “QVQLVESGRGLVQAGGSLRLSCAASGRTFGYYAMGWYIQAPGKERELVAAISYSGGSTYYADSVKGRFKISRDNAKNTVYLQMNSLKPEDTAVYYCAAYLRRYPWYDYWVQGTQVTVSS” the entry was “high polyreactivity”; with “QVQLVESGRGLVQAGGSLRLSCAASGRTFHYNVMGWYRQAPGKERELVAAITNTGGSTYYADSVKGRFTISRDNAKNTVYLQMNSLKPEDTAVYYCAAVIWGRRYGAYPYEYWGQGTQVTVSS”, “low polyreactivity”.
In the case of “QVQLVESGRGLVQAGGSLRLSCAASGRTFRFNAMGWYRQAPGKEREFVAAITSGGGTYYADSVKGRFTISRDNAKNTVYLQMNSLKPEDTAVYYCAAPRQYYLMDYGGQGTQVTVSS”, the “polyreactivity (PSR sort gate)” value is listed as “low polyreactivity”.
With “QVQLVESGRGLVQAGGSLRLSCAASGRTFYFYAMGWYRQAPGKEREFVAAITSSGVSTYYADSVKGRFTISRDNAKNTVYFQMISQKPEDSAVYYCAADDWDWENDYWGQGTQVTVSS”, the “polyreactivity (PSR sort gate)” value is given as “low polyreactivity”.
The same measure for “QVQLVESGRGLVQAGGSLRLSCAASGSIFGAYVMGWYRQAPGKERELVAAITRRGGSTYYADSVKGRFTISRDNAKNTVYLQMNSLKPEDTAVYYCAARRGAGDGYWGQGTQVNVSS”: “high polyreactivity”; for “QVQLVESGRGLVQAGGSLRLSCAASGSIFGGYGMGWYRQAPGKERELVAAITSGSSTYYADSVKGRFTISRDNAKNTVYLQMNSLKPEDTAVYYCAARPYPHSAYEGDYWGRGTQVTVSS”: “low polyreactivity”; for “QVQLVESGRGLVQAGGSLRLSCAASGSIFVDYTMGWYRQAPGKERELVARITSGGSTYYADSVKGRFTISRDNAKNSVYLQMNSLKPEDTAVYYCAARPYYRYRNSWREQYYYWGQGTQVTVSS”: “high polyreactivity”.
The same measure for “QVQLVESGRGLVQAGGSLRLSCAASGSIFWENAMGWYRQAPGKERELVADITIGGSTNYADSVKGRFTISRDNAKNTVYLQMNILKPEDTAVYYCAAYYYWPKYWYWGYDDWGQGTQVTVSS”: “low polyreactivity”; for “QVQLVESGRGLVQAGGSLRLSCAASGSIFWYYAMGWYRPSPGKETELVAAIRRGGSTTYADSVKGRFTISRDNAKNTVYLQMNSLKPEDTAVYYCAAEPYYWYRGDYWGQGTQVTVSS”: “high polyreactivity”.
With “QVQLVESGRGLVQAGGSLRLSCAASGSTFAWNAMGWYRQAPGKERELVAAINSGDSTYYADSVKGLFTISRDNAKNTVYLQMNSLKPEDTAVYYCATKYRGVWYTRGQTYYYWGQGTQVNVSS” the entry was “high polyreactivity”; with “QVQLVESGRGLVQAGGSLRLSCAASGSTFPGNAMGWYRQAPGKERELVAAIRDRGTSTYYADSVKGRFTISRDNAKNTVYLQMNSLKPEDTAVYYCAAASSVAKGRWRLYDYWGQGTQVTVSS”, “high polyreactivity”.
Turning to “QVQLVESGRGLVQAGGSLRLSCAASVNIFRGYTMGRYRQAPGTERELVATITWNGVSTFYADSVKGRFTISRDNAKNTVYLQMHSLKPEDTAVYYCAAYYPSHDYSGFWSDTYEYWGQGTQVTVSS”, the “polyreactivity (PSR sort gate)” value is “low polyreactivity”.
Turning to “QVQLVESGRGLVQAGGSLRLSCAPSGFTFYRNEMGWYRQAPGKERELVAAITFSGGITYYADSVKGRFTISRDNAKNTVYLQMNSLKPEDTAVYYGAAEGVGPARVYQGGEYNYWGQGTQVTVSS”, the “polyreactivity (PSR sort gate)” value is “low polyreactivity”.
As to “QVQLVESGRGLVQAGGSLRLSCAPSGSNFPPNAMGWYRQAPGKEREFVASITSSGGITNYADSVKGRFTISRDNAKNTVYLQMNSLKPEDTAVYFCAAVQTWRWVYARDYWGQGTQVTVSS”, the “polyreactivity (PSR sort gate)” value was “high polyreactivity”.
For “QVQLVESGRGLVQAGGSLRVSCAASGNTYLYYGMGWYRHAPGKERELVAAITQSGGTTYYADSVKGRFTISRDNAKNTVYFQMNTLIPEDTAVYYFAATRYYYYWYVYDDRGDYWGQGTQVSVSS”, the “polyreactivity (PSR sort gate)” value is on record as “low polyreactivity”.
The same measure for “QVQLVESGRGLVQAGGSLSLSCAASGITFRPYPMGWYRKAPGKERELVAAISRGGSSTYYADSVKGRFTISRDYAKNTVYLQMISLKPEDTAVYYFAARNNKKYDYWGQGTQVTVSS”: “high polyreactivity”; for “QVQLVESGRGLVQAGRSLRLSCAASGFIFETYPMGWYRQAPGKVRELVAAISRGASTYYADSVKGRFTISRDNAKNTVYLQMNSLTPEDTAVYNCAAQQGISYGTGVSATNPMDYWGQGTHVTVSS”: “low polyreactivity”; for “QVQLVESGRGLVQAGVSLRLSCAASGFIFKGYAMGWYRQATGKERELVAAITWSGRTYYADSVKGRFTISRDNAKNTVYLKMNSLKPEDTAVFYCAVDRGRGSTYKYDYWGQGTQVNVSS”: “low polyreactivity”.
Turning to “QVQLVESGRGLVQAGVSLRLSCAASGRIFTNNAMGLYRQAPGKERELVAAINVSGGRTYYADSVKGRFTISRENAKNTVYLQMNSLKPEDTAVYYCNKVKETYMDYWGQGTQVTVSS”, the “polyreactivity (PSR sort gate)” value is “high polyreactivity”.
As for “QVQLVESGRGLVQAGVSLRLSCAASGRTFVLYTMGWYRQAPGKERELVAAITKSGGSTYYADSVKGRFTISRDNAKNTVYLQMNSLKPEDTAVYYCAAARRYYTYYREDYYYWGQGTLVTVSS”, the “polyreactivity (PSR sort gate)” value is “high polyreactivity”.
Turning to “QVQLVESGRGLVQAVGSLRLSSAASGSIFMWYTMGCYRQAPGKERELVAAISKSGGRTYYADSVKGRFTISRDNAKNTVYLQMNSMKPEDTAVYYCAKLYPYDSPVPDGHQFDYWGQGTQVTVSS”, the “polyreactivity (PSR sort gate)” value is “high polyreactivity”.
Regarding “QVQLVESGRGLVQEGGSLRLSCAASGFTFYGYAMGWYRQAPGKERELVAAINSGGRTYYADSVKGRFTISRDNAKNSVYLQMNSLKPEDTAVYYCAAVSLYTSDYYWGQGTQVTVSS”, the “polyreactivity (PSR sort gate)” value is listed as “high polyreactivity”.
Regarding “QVQLVESGRRLVQAGGSLRLSCAASGSTFYGYGMGWYRPAPRQERELVAAITGSGDTTYYADSVKGRFTISRDNAKNTVYLQMNSLKPEDTAVYYCNARWHAEYDYWGQGTQVTVSS”, the “polyreactivity (PSR sort gate)” value was “low polyreactivity”.
